In patent US8158376B2, “Bisubstrate fluorescent probe binding to protein kinases” (University of Tartu, priority 2006, dated 2012):
Like-named read-outs stand apart in the source and are kept apart here.

What was measured:
Test in all cases: Kinase selectivity panel
Assay type in all cases: biochemical
CSK = CSK (Homo sapiens, UniProt P41240); conditions: read-out: residual activity (%) CSK
Procedure: (§1) The panel of kinases included all 52 kinases available for testing.
(§2) The assay of protein kinases was performed at 30° C. as described previously [Davies et al., Biochem. J. 351 (2000) 95; Murray et al., Biochem. J. 384 (2004) 477].

MARK3 = MARK3 (Homo sapiens, UniProt P27448); conditions: read-out: residual activity (%) MARK3
Procedure: as §1, §2

P70 S6K = P70 S6K (Homo sapiens, UniProt P23443); conditions: ATP 20 μM
Procedure: as §1, §2

Src = Src (Homo sapiens, UniProt P12931); conditions: read-out: residual activity (%) Src
Procedure: as §1, §2

MAPKAP-K1b/rsk-2 = MAPKAP-K1b/rsk-2 (Homo sapiens, UniProt P51812); conditions: ATP 50 μM
Procedure: as §1, §2

NEK7 = NEK7 (Homo sapiens, UniProt Q8TDX7); conditions: read-out: residual activity (%) NEK7
Procedure: as §1, §2

MAPKAP-K1a/rsk-1 = MAPKAP-K1a/rsk-1 (Homo sapiens, UniProt Q15418); conditions: inhibitor 1 μM, ATP 50 μM
Procedure: as §1, §2

MKK1 = MKK1 (Homo sapiens, UniProt Q02750); conditions: read-out: residual activity (%) MKK1
Procedure: as §1, §2

MNK2 = MNK2 (Homo sapiens, UniProt Q9HBH9); conditions: read-out: residual activity (%) MNK2
Procedure: as §1, §2

SGK = molecular target: T1, SGK (Homo sapiens, UniProt O00141); conditions: read-out: residual activity (%) SGK
T1 sequence (O00141 1-431): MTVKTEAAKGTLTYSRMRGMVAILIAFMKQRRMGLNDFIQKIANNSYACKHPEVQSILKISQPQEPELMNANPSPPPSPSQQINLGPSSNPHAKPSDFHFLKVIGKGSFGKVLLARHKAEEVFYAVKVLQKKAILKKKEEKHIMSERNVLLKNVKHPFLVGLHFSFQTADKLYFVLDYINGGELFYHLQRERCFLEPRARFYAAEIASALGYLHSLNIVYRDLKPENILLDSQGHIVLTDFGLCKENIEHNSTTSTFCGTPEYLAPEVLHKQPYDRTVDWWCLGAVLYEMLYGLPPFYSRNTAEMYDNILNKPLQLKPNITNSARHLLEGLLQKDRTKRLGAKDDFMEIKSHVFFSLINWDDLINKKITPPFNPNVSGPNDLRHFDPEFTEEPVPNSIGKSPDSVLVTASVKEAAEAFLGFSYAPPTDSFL
Procedure: as §1, §2

Aurora B = Aurora B (Homo sapiens, UniProt Q96GD4); conditions: read-out: residual activity (%) Aurora B
Procedure: as §1, §2

MNK1 = MNK1 (Homo sapiens, UniProt Q9BUB5); conditions: read-out: residual activity (%) MNK1
Procedure: as §1, §2

PKCa = PKCa (Homo sapiens, UniProt P17252); conditions: read-out: residual activity (%) PKCa
Procedure: as §1, §2

PKD1 = molecular target: T2, PKD1 (Homo sapiens, UniProt Q15139); conditions: for remaining activity at 1 µM: read-out: residual activity (%) PKD1
T2 sequence (Q15139 1-912): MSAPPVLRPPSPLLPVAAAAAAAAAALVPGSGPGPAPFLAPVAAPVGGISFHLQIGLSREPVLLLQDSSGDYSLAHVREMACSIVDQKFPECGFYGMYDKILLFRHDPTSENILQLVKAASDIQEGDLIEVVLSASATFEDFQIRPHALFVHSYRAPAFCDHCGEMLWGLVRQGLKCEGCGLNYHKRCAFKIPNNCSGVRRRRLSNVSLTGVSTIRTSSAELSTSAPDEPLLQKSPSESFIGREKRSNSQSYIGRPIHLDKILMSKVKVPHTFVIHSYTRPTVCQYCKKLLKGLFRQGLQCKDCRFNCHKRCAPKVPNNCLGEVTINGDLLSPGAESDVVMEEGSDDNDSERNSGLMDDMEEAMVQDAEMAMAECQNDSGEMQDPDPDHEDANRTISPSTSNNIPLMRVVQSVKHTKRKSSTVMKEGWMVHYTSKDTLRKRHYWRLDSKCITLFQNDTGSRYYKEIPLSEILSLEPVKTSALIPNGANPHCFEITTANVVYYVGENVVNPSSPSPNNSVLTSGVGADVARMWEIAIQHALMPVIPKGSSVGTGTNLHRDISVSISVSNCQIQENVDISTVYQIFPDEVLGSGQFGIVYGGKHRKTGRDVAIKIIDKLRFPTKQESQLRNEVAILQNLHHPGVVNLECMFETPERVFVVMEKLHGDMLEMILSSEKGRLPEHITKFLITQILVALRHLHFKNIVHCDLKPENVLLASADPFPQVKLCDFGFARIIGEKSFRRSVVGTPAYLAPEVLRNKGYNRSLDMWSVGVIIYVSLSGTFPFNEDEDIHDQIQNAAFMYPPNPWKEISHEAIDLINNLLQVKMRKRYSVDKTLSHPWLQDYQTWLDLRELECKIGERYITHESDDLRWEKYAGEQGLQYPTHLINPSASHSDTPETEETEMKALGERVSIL
Procedure: as §1, §2

GSK3b = GSK3b (Homo sapiens, UniProt P49841); conditions: read-out: residual activity (%) GSK3b
Procedure: as §1, §2

CHK2 = CHK2 (Homo sapiens, UniProt O96017); conditions: read-out: residual activity (%) CHK2
Procedure: as §1, §2

Chain of P70 S6K (P23443 whole entry): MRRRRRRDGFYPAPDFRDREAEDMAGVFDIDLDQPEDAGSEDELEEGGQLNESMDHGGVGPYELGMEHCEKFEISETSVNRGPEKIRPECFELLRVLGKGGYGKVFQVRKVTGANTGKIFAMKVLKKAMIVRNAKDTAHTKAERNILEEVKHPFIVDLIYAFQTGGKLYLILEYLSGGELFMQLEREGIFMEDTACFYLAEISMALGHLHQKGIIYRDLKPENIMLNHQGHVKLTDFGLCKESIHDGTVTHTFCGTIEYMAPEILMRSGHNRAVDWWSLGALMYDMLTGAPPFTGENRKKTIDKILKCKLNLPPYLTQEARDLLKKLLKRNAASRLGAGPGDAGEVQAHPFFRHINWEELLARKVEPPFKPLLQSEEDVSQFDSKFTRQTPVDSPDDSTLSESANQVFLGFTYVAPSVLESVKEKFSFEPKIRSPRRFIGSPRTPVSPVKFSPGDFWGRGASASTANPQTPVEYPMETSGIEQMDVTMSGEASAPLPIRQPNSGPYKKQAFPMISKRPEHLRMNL
Chain of MAPKAP-K1b/rsk-2 (P51812 whole entry): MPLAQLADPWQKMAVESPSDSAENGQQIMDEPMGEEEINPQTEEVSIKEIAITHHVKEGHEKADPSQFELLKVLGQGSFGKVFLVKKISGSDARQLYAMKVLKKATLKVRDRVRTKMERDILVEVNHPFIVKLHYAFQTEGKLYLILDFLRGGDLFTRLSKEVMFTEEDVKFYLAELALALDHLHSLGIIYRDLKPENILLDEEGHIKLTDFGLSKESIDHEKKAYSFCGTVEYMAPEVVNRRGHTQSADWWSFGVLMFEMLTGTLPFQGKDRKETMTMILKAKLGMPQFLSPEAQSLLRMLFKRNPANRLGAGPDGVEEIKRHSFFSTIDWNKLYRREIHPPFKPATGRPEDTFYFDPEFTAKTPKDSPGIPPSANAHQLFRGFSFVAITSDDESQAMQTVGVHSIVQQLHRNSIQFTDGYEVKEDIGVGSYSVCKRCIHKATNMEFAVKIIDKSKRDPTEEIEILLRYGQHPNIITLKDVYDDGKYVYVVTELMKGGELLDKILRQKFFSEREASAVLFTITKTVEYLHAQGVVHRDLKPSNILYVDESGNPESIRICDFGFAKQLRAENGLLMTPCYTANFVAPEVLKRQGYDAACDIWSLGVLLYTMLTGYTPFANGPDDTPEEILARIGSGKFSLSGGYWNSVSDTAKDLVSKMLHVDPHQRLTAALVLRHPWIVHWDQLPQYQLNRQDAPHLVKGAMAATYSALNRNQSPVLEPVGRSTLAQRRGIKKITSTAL
Chain of Src (P12931 whole entry, species assumed): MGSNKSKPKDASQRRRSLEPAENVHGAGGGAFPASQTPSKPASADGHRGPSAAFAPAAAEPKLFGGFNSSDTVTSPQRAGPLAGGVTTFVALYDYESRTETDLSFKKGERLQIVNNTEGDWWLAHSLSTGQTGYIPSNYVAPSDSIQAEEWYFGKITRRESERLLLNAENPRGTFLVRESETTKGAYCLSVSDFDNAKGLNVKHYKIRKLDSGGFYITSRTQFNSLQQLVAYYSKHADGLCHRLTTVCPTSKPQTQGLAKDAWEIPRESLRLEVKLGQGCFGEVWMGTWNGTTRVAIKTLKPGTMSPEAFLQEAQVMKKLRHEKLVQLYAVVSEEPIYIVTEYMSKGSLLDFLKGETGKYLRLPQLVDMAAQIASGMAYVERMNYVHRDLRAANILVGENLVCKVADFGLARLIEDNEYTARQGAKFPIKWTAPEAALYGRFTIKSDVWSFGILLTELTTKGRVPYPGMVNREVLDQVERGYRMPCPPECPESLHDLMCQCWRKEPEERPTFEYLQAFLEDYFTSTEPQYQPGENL
Chain of MAPKAP-K1a/rsk-1 (Q15418 whole entry): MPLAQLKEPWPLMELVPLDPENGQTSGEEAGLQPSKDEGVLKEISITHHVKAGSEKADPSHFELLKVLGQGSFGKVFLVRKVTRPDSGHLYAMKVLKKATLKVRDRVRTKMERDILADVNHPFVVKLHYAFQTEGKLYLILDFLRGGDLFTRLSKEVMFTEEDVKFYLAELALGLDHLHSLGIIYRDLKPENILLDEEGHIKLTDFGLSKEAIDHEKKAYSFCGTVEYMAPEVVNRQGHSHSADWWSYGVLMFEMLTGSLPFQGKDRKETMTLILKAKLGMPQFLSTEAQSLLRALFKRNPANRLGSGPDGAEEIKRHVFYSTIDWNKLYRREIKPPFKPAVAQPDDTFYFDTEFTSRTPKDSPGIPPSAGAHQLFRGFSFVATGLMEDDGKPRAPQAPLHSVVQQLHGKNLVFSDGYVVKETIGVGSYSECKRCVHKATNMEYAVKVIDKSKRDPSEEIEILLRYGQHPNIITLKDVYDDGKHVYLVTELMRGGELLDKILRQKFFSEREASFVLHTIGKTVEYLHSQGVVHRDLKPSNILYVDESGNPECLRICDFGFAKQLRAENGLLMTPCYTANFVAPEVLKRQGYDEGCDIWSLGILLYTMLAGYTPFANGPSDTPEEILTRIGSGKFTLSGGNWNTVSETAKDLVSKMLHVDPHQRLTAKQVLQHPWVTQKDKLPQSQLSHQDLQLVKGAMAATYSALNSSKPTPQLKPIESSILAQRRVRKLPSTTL
Chain of MNK2 (Q9HBH9 whole entry, species assumed): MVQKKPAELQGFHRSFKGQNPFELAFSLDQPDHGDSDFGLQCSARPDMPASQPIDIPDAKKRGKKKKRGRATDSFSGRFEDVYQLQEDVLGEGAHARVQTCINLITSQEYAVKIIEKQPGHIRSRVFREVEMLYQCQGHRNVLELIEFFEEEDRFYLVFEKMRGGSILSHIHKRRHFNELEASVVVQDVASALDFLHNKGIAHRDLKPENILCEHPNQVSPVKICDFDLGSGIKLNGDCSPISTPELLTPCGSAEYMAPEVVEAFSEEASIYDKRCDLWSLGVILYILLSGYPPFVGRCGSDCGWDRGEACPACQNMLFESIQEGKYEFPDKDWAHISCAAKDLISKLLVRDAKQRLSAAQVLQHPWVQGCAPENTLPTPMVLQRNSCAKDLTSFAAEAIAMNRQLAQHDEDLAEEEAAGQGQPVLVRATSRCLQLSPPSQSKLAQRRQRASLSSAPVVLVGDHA
Chain of GSK3b (P49841 whole entry, species assumed): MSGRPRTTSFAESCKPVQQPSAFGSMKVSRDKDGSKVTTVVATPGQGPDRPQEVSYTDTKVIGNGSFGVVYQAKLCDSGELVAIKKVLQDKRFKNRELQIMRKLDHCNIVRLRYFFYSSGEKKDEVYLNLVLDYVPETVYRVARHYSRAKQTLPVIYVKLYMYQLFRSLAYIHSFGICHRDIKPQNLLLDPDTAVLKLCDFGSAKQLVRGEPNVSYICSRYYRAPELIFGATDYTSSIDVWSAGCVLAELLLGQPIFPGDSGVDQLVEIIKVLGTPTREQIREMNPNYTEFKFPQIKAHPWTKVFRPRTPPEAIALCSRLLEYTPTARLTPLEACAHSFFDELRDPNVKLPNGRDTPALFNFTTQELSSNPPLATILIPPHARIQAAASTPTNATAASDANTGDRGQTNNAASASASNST
Chain of NEK7 (Q8TDX7 whole entry, species assumed): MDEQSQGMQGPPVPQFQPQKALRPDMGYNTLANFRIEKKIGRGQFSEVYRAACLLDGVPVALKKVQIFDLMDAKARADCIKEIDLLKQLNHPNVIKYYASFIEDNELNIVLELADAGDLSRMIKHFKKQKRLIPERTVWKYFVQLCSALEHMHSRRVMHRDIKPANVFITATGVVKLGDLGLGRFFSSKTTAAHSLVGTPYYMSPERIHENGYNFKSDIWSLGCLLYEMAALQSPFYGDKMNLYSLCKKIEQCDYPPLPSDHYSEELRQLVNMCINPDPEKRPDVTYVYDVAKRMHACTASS
Chain of MNK1 (Q9BUB5 whole entry, species assumed): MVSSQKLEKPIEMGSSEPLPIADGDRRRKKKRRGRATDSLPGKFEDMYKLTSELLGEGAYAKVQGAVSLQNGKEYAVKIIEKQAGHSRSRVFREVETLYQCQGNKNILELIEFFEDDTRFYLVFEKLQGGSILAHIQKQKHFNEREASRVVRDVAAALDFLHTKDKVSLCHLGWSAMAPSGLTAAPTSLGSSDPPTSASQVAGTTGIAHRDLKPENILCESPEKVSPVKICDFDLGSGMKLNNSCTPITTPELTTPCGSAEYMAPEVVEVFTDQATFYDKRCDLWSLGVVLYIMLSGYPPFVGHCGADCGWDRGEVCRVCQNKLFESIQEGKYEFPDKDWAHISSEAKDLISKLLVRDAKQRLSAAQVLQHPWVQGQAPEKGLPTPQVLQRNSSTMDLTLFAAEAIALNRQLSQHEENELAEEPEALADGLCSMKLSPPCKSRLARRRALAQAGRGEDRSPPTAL

For N=C(N)NCCC[C@@H](NC(=O)[C@@H](CCCNC(=N)N)NC(=O)[C@@H](CCCNC(=N)N)NC(=O)[C@@H](CCCNC(=N)N)NC(=O)[C@@H](CCCNC(=N)N)NC(=O)[C@@H](CCCNC(=N)N)NC(=O)CCCCCNC(=O)[C@H]1O[C@@H](n2cnc3c(N)ncnc32)[C@H](O)[C@@H]1O)C(N)=O [Compound 5, AdcAhx(D-Arg)6-NH2], the remaining activity at 1 µM (CSK) was 48%, the remaining activity at 1 µM (MARK3) was 40% and the “residual activity (%) P70 S6K” value (P70 S6K; inhibitor 1 μM) was 7 (±2) %. For the same compound, the remaining activity at 1 µM (P70 S6K; read-out: residual activity (%) P70 S6K, inhibitor 1 μM) was 7 to 28%, the remaining activity at 1 µM (Src) was 84% and the “residual activity (%) MAPKAP-K1b/rsk-2” value (MAPKAP-K1b/rsk-2; inhibitor 1 μM) was 12 (±0) %. The remaining activity at 1 µM (MAPKAP-K1b/rsk-2; read-out: residual activity (%) MAPKAP-K1b/rsk-2, inhibitor 1 μM) was 7 to 28%, the remaining activity at 1 µM (NEK7) was 58% and the “residual activity (%) MAPKAP-K1a/rsk-1” value (MAPKAP-K1a/rsk-1) was 28 (±7) %. The remaining activity at 1 µM (MKK1) was 77%, the remaining activity at 1 µM (MNK2) was 99% and the remaining activity at 1 µM (SGK) was 16%. The remaining activity at 1 µM (Aurora B) was 103%, the remaining activity at 1 µM (MNK1) was 102% and the remaining activity at 1 µM (PKCa) was 31%. It also gave a remaining activity at 1 µM (PKD1) of 54%, a remaining activity at 1 µM (GSK3b) of 56% and a remaining activity at 1 µM (CHK2) of 14%.
Compound N=C(N)NCCC[C@@H](NC(=O)[C@@H](CCCNC(=N)N)NC(=O)[C@@H](CCCNC(=N)N)NC(=O)[C@@H](CCCNC(=N)N)NC(=O)[C@@H](CCCNC(=N)N)NC(=O)[C@@H](CCCNC(=N)N)NC(=O)CCCCCNCCNS(=O)(=O)c1cccc2cnccc12)C(N)=O [Compound 26, H9-Hex(D-Arg)6-NH2] has a remaining activity at 1 µM (CSK; inhibitor 1 μM, ATP 20 μM) of 70%, a remaining activity at 1 µM (MARK3; inhibitor 1 μM, ATP 5 μM) of 53% and a remaining activity at 1 µM (P70 S6K; inhibitor 1 μM, read-out: residual activity (%) P70 S6K) of 2%. The remaining activity at 1 µM (Src; inhibitor 1 μM, ATP 50 μM) was 88%, the remaining activity at 1 µM (MAPKAP-K1b/rsk-2; inhibitor 1 μM, read-out: residual activity (%) MAPKAP-K1b/rsk-2) was 2% and the remaining activity at 1 µM (NEK7; inhibitor 1 μM, ATP 20 μM) was 56%. The remaining activity at 1 µM (MAPKAP-K1a/rsk-1; read-out: residual activity (%) MAPKAP-K1a/rsk-1) was 0%, the remaining activity at 1 µM (MKK1; inhibitor 1 μM, ATP 5 μM) was 84% and the remaining activity at 1 µM (MNK2; inhibitor 1 μM, ATP 50 μM) was 31%. The remaining activity at 1 µM (SGK; inhibitor 1 μM, ATP 20 μM) was 1%, the remaining activity at 1 µM (Aurora B; inhibitor 1 μM, ATP 20 μM) was 53% and the remaining activity at 1 µM (MNK1; inhibitor 1 μM, ATP 50 μM) was 68%. For the same compound, the remaining activity at 1 µM (PKCa; inhibitor 1 μM, ATP 20 μM) was 15%, the “residual activity (%) PKD1” value (PKD1; inhibitor 1 μM, ATP 50 μM) was 9 (±1) % and the remaining activity at 1 µM (PKD1; inhibitor 1 μM, ATP 50 μM) was less than 10%. The remaining activity at 1 µM (GSK3b; inhibitor 1 μM, ATP 5 μM) was 94% and the remaining activity at 1 µM (CHK2; inhibitor 1 μM, ATP 20 μM) was 22%.
